Laboratory results reported in patent publication US20230414779A1, “ANTIGEN-BINDING FRAGMENTS AND USES THEREOF” (NewSouth Innovations Pty Limited, priority 2020, published 2023).
Entries after “also recorded” stand apart in the source; their conditions may differ. Where two headings read alike, the source gives them in different places. No end group written: not given here.

T1: FcγRIIA (Homo sapiens, UniProt P12318)
T1 sequence (P12318 34-317): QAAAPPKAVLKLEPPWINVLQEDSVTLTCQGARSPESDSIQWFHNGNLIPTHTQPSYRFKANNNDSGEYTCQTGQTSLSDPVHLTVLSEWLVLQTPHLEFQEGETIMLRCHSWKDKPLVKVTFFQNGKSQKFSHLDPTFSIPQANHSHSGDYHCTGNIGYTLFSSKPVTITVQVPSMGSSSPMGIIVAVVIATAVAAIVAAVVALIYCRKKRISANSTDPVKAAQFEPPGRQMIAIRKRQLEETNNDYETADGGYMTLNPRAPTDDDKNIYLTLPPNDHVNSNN

T2: human Fc gamma receptor IIA (FcγRIIA) (human, UniProt P12318 34-317)
T2 construct: whole, on cells; also called FcgRIIA; CD32a
T2 sequence (looked up): T1 sequence (P12318 34-317)

B1: Humanized scFv (parental scFv) derived from the IV.3 monoclonal antibody (scFv)
scFv: EVQLVESGPELKKPGETVKISCKASGYTFTNYGMNWVKQAPGKGLKWMGWLNTYTGESIYPDDFKGRFAFSLETSASTAYLQINNLKSEDTATYFCARGDYGYDDPLDYWGQGTSVTVSSGGGGSGGGGSGGGGSDIVMTQAPPSVPVTPGESVSISCRSSKSLLHTNGNTYLHWFLQKPGQSPRLLIYRMSVLASGVPDRFSGSGSGTDFTLKISRVEAEDVGVYYCMQHLEYPLTFGAGTKLEIKRAHHHHHH
modifications: AF488 (fluorescent) label in the flow cytometry binding assays; site not stated
notes: Arranged VH-linker-VL; also called HRU4
B2: parental scFv: Humanized scFv derived from anti-FcγRIIA IV.3 monoclonal antibody, VH and VL joined by flexible GGGGS linker (protein)
scFv: B1 scFv
B3: HRU7: HRU5 linked to bivalirudin (an anticoagulant peptide) by a Ser2Gly12 linker (protein)
scFv: EVQLVESGPELKKPGETVKISCKASGYTFTNYGMNWVKQAPGKGLKWMGWLNTYTGESIYPDDFKGRFAFSLETSASTAYLQINNLKSEDTATYFCARGDYGYDDPLDYWGQGTSVTVSSGGGGWAWVWLTETAVGGGGSDIVMTQAPPSVPVTPGESVSISCRSSKSLLHTNGNTYLHWFLQKPGQSPRLLIYRMSVLASGVPDRFSGSGSGTDFTLKISRVEAEDVGVYYCMQHLEYPLTFGAGTKLEIKRAGGGGSGGGGSGGGGFPRPGGGGNGDFEEIPEEYLHHHHHH
B4: HRU5 (scFv)
scFv: EVQLVESGPELKKPGETVKISCKASGYTFTNYGMNWVKQAPGKGLKWMGWLNTYTGESIYPDDFKGRFAFSLETSASTAYLQINNLKSEDTATYFCARGDYGYDDPLDYWGQGTSVTVSSGGGGWAWVWLTETAVGGGGSDIVMTQAPPSVPVTPGESVSISCRSSKSLLHTNGNTYLHWFLQKPGQSPRLLIYRMSVLASGVPDRFSGSGSGTDFTLKISRVEAEDVGVYYCMQHLEYPLTFGAGTKLEIKRAHHHHHH
modifications: AF488 (fluorescent) label in the flow cytometry binding assays; site not stated
notes: also called HRU5 scFv; Peptide in the linker
B5: HRU5: Humanized variable heavy and variable light chains derived from the IV.3 MoAb linked with a GGGGWAWVWLTETAVGGGGS linker (protein)
scFv: B4 scFv

Legend:
FcγRIIA = molecular target: T1, FcγRIIA; assay: Binding of the linker peptide alone; details: source not stated
human platelets [1] = format: cell-based; details: for Inhibition of platelet aggregation of HIT-antibody: concentration giving inhibition; for inhibition of HIT serum induced aggregation: 40 nM, human platelets, HIT serum and heparin; for EC50: HRU5 relative to the parental scFv, read-out: activity (effective concentration)
Procedure: Platelet aggregation assays were performed by mixing samples at 1200 rpm, 37° C. for up to 25 min in an aggregometer (Chrono-log Aggro/Link™). The reaction mixture (500 μl) consisted of 300 μl of healthy donor PRP, HIT patient serum or purified Total HIT IgG (up to 14 μM, adjusted according to different donor platelets), heparin (0.5 IU/ml) and various concentrations of HRU5-HRU7. The degree of aggregation was determined by the increase in light transmittance. Platelet aggregation levels over 20% were considered positive.
With antibody/IC-induced platelet aggregation, time delay (time lapse) is a more sensitive measure of platelet aggregability compared with the extent of platelet aggregation as different antibodies invariably cause the same maximum extent of platelet aggregation after variable time delays or time lapses (as illustrated in FIG. 2B). Various concentrations of parental scFv, HRU5 or HRU6 were used. Plots were fitted to non-linear regression analysis (sigmoidal dose-response curves) (FIG. 2C). […] Here, the degree of inhibition of platelet aggregation was determined at various concentrations and analysed as shown in FIG. 2D.
Inhibition of platelet aggregation of HIT-antibody by HRU5 ˜3.5 mg/ml.

[2] = molecular target: T2, human Fc gamma receptor IIA (FcγRIIA); assay: platelet-based fluorescent assay (flow cytometry), one-site specific binding fit
Procedure: (§1) Platelet-rich plasma (PRP) was obtained from whole blood after centrifugation at 200×g for 10 min. Washing/Suspension buffer (PBS, 0.5% BSA, 25 mM EDTA, pH 6.8) was used for platelet preparation throughout the experiment. 4 μl of PRP was incubated with various concentrations of fluorescently labelled HRU molecules for 30 min. Cells were washed once with 500 μl of buffer (PBS, 0.5% BSA, 25 mM EDTA, pH 6.8), suspended in 200 μl of PBS and analysed by flow cytometry (Cantoll, BD Biosciences).

[3] = molecular target: T2, human Fc gamma receptor IIA (FcγRIIA); assay: cell-based or functional assay
human platelets [4] = assay: Platelet binding, flow cytometry (platelet-based fluorescent assay); details: for Kd: binding to human platelets, non-linear regression, one-site specific binding (FIG. 1D); for binding to human platelets: labelled scFvs, flow cytometry, in words
Procedure: FIG. 1D provides graphs of platelet-based fluorescent assay measurements with KD and R^2 values for the parental scFv, HRU5 and HRU6. Non-linear regression analysis (one-site specific binding) was used to determine KD and R^2 values. GMF, geometric mean fluorescence.
as §1

platelets [5] = assay: Serotonin release assay (platelet activation); format: cell-based, human; details: 0.1 IU/ml heparin; induced by KKO (FIG. 4) / HIT serum
Excerpt: FIG. 4 is a graph of the serotonin release assay. Serotonin release was induced by a HIT-like monoclonal antibody (KKO) and was inhibited by parental scFv, HRU5, HRU6 or HRU7. Heparin was used at therapeutic low concentrations (L, 0.1 U) and at inhibitory high concentration (H,100 U). Dotted lines denote 0% and 20% CPMA. Values over 20% are considered positive. CPMA, counts per minute.
SRA is the gold standard to confirm the presence of platelet-activating HIT antibodies. Platelets from a healthy donor were labelled with Hydroxytryptamine Binoxalate, 5-[2-^14C]-(Serotonin) (^14C-5HT) (1.5 μl/ml) and mixed with heparin (0.1 (low dose) or 100 IU/ml (high dose)) in the presence of HIT serum. The protein of interest was then added to the reaction and incubated at room temperature for 1 h. After centrifugation the supernatant was collected and the ^14C-serotonin released was measured in a scintillation counter. The percentage of ^14C-serotonin released was calculated by determining the proportion in the supernatant relative to the remaining ^14C-serotonin in platelets. A test result is defined as positive if more than 20% serotonin release is detected with a therapeutic heparin concentration of (0.1 IU/ml) but not with a high dose of heparin (100 IU/ml).

[6] = tested on: FcγRIIA/hPF4 double transgenic mice; assay: Animal model of HIT (KKO plus heparin), lung thrombi by fluorescence; format: in vivo, mouse; details: 3.49×10^−11 moles per gram (~1 microgram/g)
Procedure: The mice used in these experiments were described in Reilly et al., “Heparin-induced thrombocytopenia/thrombosis in a transgenic mouse model requires human platelet factor 4 and platelet activation through FcγRIIA” Blood. 2001; 98(8):2442-2447. Animals were injected intravenously (iv) with HIT-like MoAb KKO. Heparin was injected intraperitoneally at 1 U/g following IgG injection. In some experiments, HRU molecules were also injected via the iv route. For in vivo platelet labelling anti-CD42c-Dylight649 (Emfret) was injected iv at 1 μg/g. Platelet counts were measured before treatment and at 1 h, 3 h and 5 h following treatment. Lungs were harvested 4 h after treatment, fixed in formalin and scanned for fluorescence in an IVIS Lumina Spectrum CT Spectrometer (PerkinElmer).
Mouse platelets were labeled in vivo with anti CD42c-Dylight649 antibody. The animals were treated with the HIT-like monoclonal antibody KKO plus heparin in the absence (vehicle) or presence of 3.49×10^−11 moles per gram (˜1 microgram/g) of parental scFv or HRU5. Fixed lungs from these mice were scanned with an IVIS Lumina Spectrum CT. There was clear accumulation of florescence in lungs treated with KKO plus vehicle, indicative of the presence of platelet rich thrombi. […] This finding is consistent with the findings of the in vitro experiments and microfluidics studies. […]

[7] = tested on: FcγRIIa+/hPF4+ mouse lungs; assay: Platelet accumulation in FcγRIIa+/hPF4+ mouse lungs (FIG. 8); format: in vivo
Excerpt: FIG. 8 is a graph of radiant efficiency showing the level of platelet accumulation in FcγRIIa+/hPF4+ mouse lungs.

thrombin = molecular target: T3, thrombin (Homo sapiens, UniProt P00734); assay: Thrombin time assay in plasma; format: biochemical; details: undiluted plasma, increasing concentrations, in words
T3 construct: purchased Diagnostica STAGO S.A.A
Procedure: FIG. 3B is a graph of a Thrombin Time Delay assay for HRU6 and HRU7. Increasing concentrations of HRU molecules were incubated with undiluted plasma prepared from ACD anticoagulated blood. Clotting time of control plasma (untreated plasma) is shown corresponding to 0 concentration (closed circle). […] Clotting time is shown in sec.
The STA-Thrombin kit (Diagnostica STAGO S.A.A.) was used for the determination of the thrombin time by a haemostasis analyser. Plasma was prepared from ACD anticoagulated normal blood by centrifugation for 10 min at 2500×g. 500 μl of undiluted plasma, in the absence and presence of different inhibitor concentrations (e.g., HRU6 and HRU7), was analysed. Thrombin time of the plasma was determined by the analyser.
HRU6 and HRU7 also contain anti-thrombin activity provided by the lepirudin and bivalirudin moieties respectively. The Hemoclot thrombin inhibitor assay was used to determine the anti-clotting activity. The normal clotting time range is 15-24 sec.

platelets [8] = assay: Thrombin-induced platelet aggregation; format: cell-based, human; details: 0.3 U of thrombin
Excerpt: For thrombin induced platelet aggregation samples were mixed as described above in the presence of 0.3 U of thrombin.

Row | Molecule | Inhibition of platelet aggregation of HIT-antibody (human platelets [1]; serum from a HIT patient) | Kd [2] | Kd (human platelets [4]) | 14C-serotonin release (platelets [5]) | inhibition of HIT serum induced aggregation (human platelets [1]) | EC50 (human platelets [1]) | inhibition of thrombus accumulation in lungs [6] | binding to human platelets (human platelets [4]) | thrombin clotting time (thrombin) | also measured
1 | WAWVWLTETAV [FcγRIIA binding peptide, reference compound] | 100 µM |  |  |  |  |  |  |  |  | Kd (FcγRIIA): 500 nM; IC50 (human platelets [1]): 55000 nM; capacity to inhibit HIT serum-induced aggregation (human platelets [1]; peptide alone, FIG. 10): low; IC50 of peptide versus EC50 of the parental scFv (human platelets [1]; printed as '3,000 times lower'): 3,000 times
2 | B1 |  | 298 nM |  |  |  |  |  |  |  | EC50 (platelet aggregation induced by HIT serum) [3]: 18 nM
3 | B2 |  |  | 282 nM | inhibited | completely inhibited | 55000 nM | inhibition of thrombus accumulation |  |  | inhibition of thrombosis (platelet accumulation in lungs, radiant efficiency) [7]: strong inhibition of thrombosis
4 | B3 |  |  |  | inhibited |  |  |  | stronger binding to human platelets than expected | significant increases in thrombin clotting time; also recorded: prolong clotting time in a dose-dependent manner | inhibition of thrombin-induced platelet aggregation (platelets [8]): inhibit thrombin-induced platelet aggregation in a dose dependent manner
5 | B4 |  | 282 nM |  |  |  |  |  |  |  | 
6 | B5 | ~3.5 mg/mL |  | 298 nM | inhibited | completely inhibited | 8.8 nM | inhibition of thrombus accumulation; also recorded: Clot inhibition was much greater in mice treated with HRU5 than with parental scFv | strong binding to platelets | did not influence clotting time; also recorded: does not prolong clotting time | activity relative to the parental scFv (EC50 and IC50) (human platelets [1]; HIT serum-induced platelet aggregation, in words): increase in activity; Inhibition of platelet aggregation of HIT-antibody (human platelets [1]; converted from mg/ml): ~0.09386 µM
